Results as given in patent US7998940B2, “Aptamers to von Willebrand factor and their use as thrombotic disease therapeutics” (Archemix Corp., priority 2004, dated 2011).
Substitutions are numbered along the chain they refer to. Oligonucleotides are written 5' to 3', each unit as a sugar letter and its base; * is a phosphorothioate linkage, no mark a phosphodiester; rarer units and linkages stand in square brackets, end groups in braces. Plain capitals give the bases only. d = 2'-deoxy (DNA); r = 2'-OH (RNA); f = 2'-fluoro

B1: AMX203.A6: rRdY aptamer clone (nucleic acid)
chain: rGrGrArGdCrGdCrAdCdTdCrArGdCdCrAdCdCrAdCrGrGrGrGrAdCrGrGrGdTrArGrGrGdCrGrGrGdCrGrArGrGdTrGrGdTrGrGdCrAdTdTrArGdCrGdTdTdTdCrGrAdCdCdTdCdTdCdTrGdCdTrArGdC
B2: AMX201.A8: rRfY aptamer clone (nucleic acid)
chain: rGrGrArGfCrGfCrAfCfUfCrArGfCfCrAfCrGfCfUrGfUrAfCrAfCfUrGrAfUrGfUfUrGfUrArAfCrAfUrGfUrAfCfCfCfCfCfUrGrGfCfUrGfUfUfUfCrGrAfCfCfUfCfUfCfUrGfCfUrArGfC
B3: AMX201.D4: rRfY aptamer clone (nucleic acid)
chain: rGrGrArGfCrGfCrAfCfUfCrArGfCfCrAfCfUrGrGrGrGfCfUrGrAfUfCfUfCrGfCrAfCrGrAfUrArGfUfUfCrGfUrGfUfCrArArGrGrAfUrGfCrGfUfUfUfUfCrGrAfCfCfUfCfUfCfUrGfCfUrArGfC
B4: AMX203.F9: rRdY aptamer clone (nucleic acid)
chain: rGrGrArGdCrGdCrAdCdTdCrArGdCdCrAdCdTrGrArArGrGrGdTrArArGrGrAdCrGrArGrGrArGrGrGdTrAdTrAdCrArGdTrGdTrGdCrGdCrGdTrGdTrAdTdTdTdCrGrAdCdCdTdCdTdCdTrGdCdTrArGdC
B5: AMX201.D3: rRfY aptamer clone (nucleic acid)
chain: rGrGrArGfCrGfCrAfCfUfCrArGfCfCrAfCrGfCfCfCrAfCrGfUfCrArArAfUfUrAfUrArGfUfCfUrAfCfUfUfUrGrAfUrGfUrGfCfCfCrGfUrGrGfUfUfUfCrGrAfCfCfUfCfUfCfUrGfCfUrArGfC
B6: AMX200.G11: DNA SELEX 1 aptamer clone (nucleic acid)
DNA: CTACCTACGATCTGACTAGCGGAACGAGAATGCTGATGGATTGCTCAGGTCTGCTGGCTGCTTACTCTCATGTAGTTCC
modifications: DNA, backbone not given here
notes: DNA SELEX 1 aptamer clone
B7: AMX200.B9: DNA SELEX 1 aptamer clone (nucleic acid)
DNA: B6 DNA with C25T, G57A
modifications: DNA, backbone not given here
notes: DNA SELEX 1 aptamer clone
B8: AMX200.D8: DNA SELEX 1 aptamer clone (nucleic acid)
DNA: B6 DNA with C25T, C33T
modifications: DNA, backbone not given here
notes: DNA SELEX 1 aptamer clone
B9: AMX200.D11: DNA SELEX 1 aptamer clone (nucleic acid)
DNA: B6 DNA with C25T, G26A
modifications: DNA, backbone not given here
notes: DNA SELEX 1 aptamer clone
B10: AMX200.A7: DNA SELEX 1 aptamer clone (nucleic acid)
DNA: B6 DNA with C25T, C44T
modifications: DNA, backbone not given here
notes: DNA SELEX 1 aptamer clone
B11: AMX205.A7: rRdY aptamer clone (nucleic acid)
chain: rGrGrArGdCrGdCrAdCdTdCrArGdCdCrAdCdTdCrArArGrGrGrGrGdTdCrGdCrGdTrGrGrGrGrAdCrGrArArGrGrGdTdTrGdCrArGdTrGdTrGdTdCrGdTdTdTdCrGrAdCdCdTdCdTdCdTrGdCdTrArGdC
B12: AMX205.G9: rRdY aptamer clone (nucleic acid)
chain: rGrGrArGdCrGdCrAdCdTdCrArGdCdCrAdCrArAdCdTrGrGdTdTrGdTdCrGrGdTrGrAdTrGrGdCrAdTdTrArAdCrGdCrGrGrAdCdCrArGrGdCrAdTrGdTdTdTdCrGrAdCdCdTdCdTdCdTrGdCdTrArGdC

Key:
[1] = target: human vWF A1 domain (SEQ ID NO 5) (Homo sapiens, UniProt P04275, T1381A); test: 3-point dot blot screen, human vWF A1 domain; assay type: binding; settings: 100 nM human vWF A1 domain
Text: (§1) When a significant positive ratio of binding of RNA in the presence of human or rabbit vWF A1 domain versus in the absence of protein was seen, the pools were cloned using the TOPO TA cloning kit (Invitrogen, Cat. #45-0641, Carlsbad, Calif.) according to the manufacturer's instructions. Round 9 and 12 pool templates were cloned and sequenced (125 total sequences), producing 48 unique clones. All unique clones were transcribed, desalted, 5-^32P end-labeled, and assayed in a 3-point dot blot screen (no protein target control, 100 nM human vWF A1 domain (SEQ ID NO 5, FIG. 3), or 100 nM rabbit vWF A1 domain (SEQ ID NO 6, FIG. 3). The data is presented in the third and fourth columns of Table 4 below as the ratio of the fraction of the aptamer bound to the nitrocellulose in the presence of the target protein to the fraction of aptamer bound in the absence of the target protein.
(§2) When a significant positive ratio of binding of RNA in the presence of human or rabbit vWF A1 domain (SEQ ID NOS 4 and 6, respectively) versus in the absence of protein was seen, the pools were cloned using the TOPO TA cloning kit (Invitrogen Cat. #45-0641, Carlsbad, Calif.) according to the manufacturer's instructions. Round 9 and 12 pool templates were cloned and sequenced (185 total sequences), producing 78 unique clones within 3 sequence families. All unique clones were transcribed, desalted, 5-^32P end-labeled, and assayed in a 3-point dot blot screen (no protein target control, 100 nM human vWF A1 domain (SEQ ID NO 5), or 100 nM rabbit vWF A1 domain (SEQ ID NO 6). The data are presented in the third and fourth columns of Table 9 below as the ratio of the fraction of the aptamer bound to the nitrocellulose in the presence of the target protein to the fraction of aptamer bound in the absence of the target protein. Of the three sequence families, members of Family #1 and #2 and two individual, non-family aptamers, bound to both human vWF domain A1 (SEQ ID NO 5) and rabbit vWF domain A1 (SEQ ID NO 6).
(§3) All unique clones were assayed in a 3-point dot blot screen (no protein target control, 100 nM human vWF A1 domain (SEQ ID NO 5), or 100 nM rabbit vWF A1 domain (SEQ ID NO 6). The data are presented in the third and fourth columns of Table 14 below as the ratio of the fraction of the aptamer bound to the nitrocellulose in the presence of the target protein to the fraction of aptamer bound in the absence of the target protein.

[2] = tested on: rabbit vWF A1 domain (SEQ ID NO 6); test: 3-point dot blot screen, rabbit vWF A1 domain; assay type: binding; settings: 100 nM rabbit vWF A1 domain, ratio of fraction bound with target to without
Text: as §1, §2, §3
When a significant positive ratio of binding of DNA in the presence of human or rabbit vWF A1 domain versus in the absence of protein was seen, the pools were cloned using the TOPO TA cloning kit (Invitrogen Cat. #45-0641, Carlsbad, Calif.) according to the manufacturer's instructions. Round 7 and 11 pool templates were cloned and sequenced (218 total sequences), producing 146 unique clones within 12 sequence families of which sequences from six families show vWF target binding activity. All unique clones were assayed twice in a 3-point dot blot screen (no protein target control, 20 nM full length human vWF (Calbiochem Cat. #681300, La Jolla, Calif.), or 20 nM rabbit vWF A1 domain. The data is presented in the third and fourth columns of Table 17 below as the ratio of the fraction of the aptamer bound to the nitrocellulose in the presence of the target protein to the fraction of aptamer bound in the absence of the target protein.

[3] = rRdY aptamers, ratio of fraction bound with target to without
[4] = rRfY aptamers, ratio of fraction bound with target to fraction bound without target
[5] = DNA SELEX 1 aptamers, ratio of fraction bound with target to without

human vWF A1 domain (SEQ ID NO 5), sequence (P04275 with tags, fused parts or gaps T1381A): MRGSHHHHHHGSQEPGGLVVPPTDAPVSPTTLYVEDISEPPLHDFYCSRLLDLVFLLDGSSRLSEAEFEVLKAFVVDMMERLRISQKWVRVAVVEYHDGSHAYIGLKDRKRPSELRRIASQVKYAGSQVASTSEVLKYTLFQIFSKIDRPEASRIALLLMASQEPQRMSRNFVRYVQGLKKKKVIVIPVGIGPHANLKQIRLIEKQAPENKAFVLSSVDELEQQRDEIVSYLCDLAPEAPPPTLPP
rabbit vWF A1 domain (SEQ ID NO 6), sequence (as listed by the source): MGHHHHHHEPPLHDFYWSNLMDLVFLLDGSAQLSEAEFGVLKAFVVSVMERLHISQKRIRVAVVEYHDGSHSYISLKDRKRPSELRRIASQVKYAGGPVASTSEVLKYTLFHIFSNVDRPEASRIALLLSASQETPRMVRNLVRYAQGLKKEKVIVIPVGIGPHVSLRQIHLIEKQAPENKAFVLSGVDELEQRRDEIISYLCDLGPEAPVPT

Molecule	Screen- Human/No Protein [1, 3]	Screen- Rabbit/No Protein ([2]; rRdY aptamers)	Screen- Human/No Protein [1, 5]	Screen- Rabbit/No Protein ([2]; DNA SELEX 1 aptamers)	other results
B1	1.16	1.16			
B2					Screen- Human/No Protein [1, 4]: 1.82; Screen- Rabbit/No Protein ([2]; rRfY aptamers): 1.51
B3					Screen- Human/No Protein [1, 4]: 2.23; Screen- Rabbit/No Protein ([2]; rRfY aptamers): 2.46
B4	1.45	1.29			
B5					Screen- Human/No Protein [1, 4]: 1.76; Screen- Rabbit/No Protein ([2]; rRfY aptamers): 1.52
B6			1.73	1.28	
B7			2.54	2.06	
B8			2.86	1.61	
B9			3.34	2.04	
B10			0.97	0.96	
B11	1.24	1.37			
B12	1.30	1.73			
